Results published in patent US20070244108A1.

Substrate: C[C@]12CCC(=O)C=C1CCC1C2C(=O)C[C@@]2(C)C1CC[C@]2(O)C(=O)CO
Assay: cells, lysate or membranes named

| Protein | Km (other: 10 μg microsomal protein, 30 min at 37° C., Buffer 1, TLC assay) [µM] | Km (other: RIA detection, 10 μg/well microsomal protein, 30 min, buffer 3, 37.0 °C) [µM] |
| --- | --- | --- |
| human hepatic microsomal 11β HSD1 (Homo sapiens) (protein) MAFMKKYLLPILGLFMAYYYYSANEEFRPEMLQGKKVIVTGASKGIGREMAYHLAKMGAHVVVTARSKETLQKVVSHCLELGAASAHYIAGTMEDMTFAEQFVAQAGKLMGGLDMLILNHITNTSLNLFHDDIHHVRKSMEVNFLSYVVLTVAALPMLKQSNGSIVVVSSLAGKVAYPMVAAYSASKFALDGFFSSIRKEYSVSRVNVSITLCVLGLIDTETAMKAVSGIVHMQAAPKEECALEIIKGGALRQEEVYYDSSLWTTLLIRNPCRKILEFLYSTSYNMDRFINK | 0.66 | – |
| Human 11β HSD1 (Homo sapiens) (protein) MAFMKKYLLPILGLFMAYYYYSANEEFRPEMLQGKKVIVTGASKGIGREMAYHLAKMGAHVVVTARSKETLQKVVSHCLELGAASAHYIAGTMEDMTFAEQFVAQAGKLMGGLDMLILNHITNTSLNLFHDDIHHVRKSMEVNFLSYVVLTVAALPMLKQSNGSIVVVSSLAGKVAYPMVAAYSASKFALDGFFSSIRKEYSVSRVNVSITLCVLGLIDTETAMKAVSGIVHMQAAPKEECALEIIKGGALRQEEVYYDSSLWTTLLIRNPCRKILEFLYSTSYNMDRFINK | – | 0.7 |
